We go through 1 protein from PMC6286126, “A novel pathway of LPS uptake through syndecan-1 leading to pyroptotic cell death” (eLife, 2018).

This data set deals with the molecule itself. The experiment in a line: native gel or EMSA; human SCGB3A2 10 µg on 0.8% agarose gel in TAE, Coomassie Brilliant Blue staining of the gel. For orientation: In EMSA bound probe runs differently from free probe, usually more slowly.

B1: recombinant human SCGB3A2 (C1) (natural protein, UniProt Q96PL1 22-93, looked up)
chain: FLINKVPLPVDKLAPLPLDNILPFMDPLKLLLKTLGISVEHLVEGLRKCVNELGPEASEAVKKLLEALSHLV
notes: recombinant human SCGB3A2, lot C1; also called hS2; source: recombinant; in house (APCBio Innovations), Cai et al., 2014
As to B1, the binding result is “binds”.
